{"source": "paper PMC7067772", "about": "“Digenic inheritance of mutations in EPHA2 and SLC26A4 in Pendred syndrome” (Nature Communications, 2020)", "key": {"ephrin-B2 (Homo sapiens)": {"target": "ephrin-B2 (Homo sapiens) (UniProt P52799)", "settings": "cited from earlier work"}, "ephrin-A5 (Homo sapiens)": {"target": "ephrin-A5 (Homo sapiens) (UniProt P52803)", "settings": "cited from earlier work"}, "ephrin-A4 (Homo sapiens)": {"target": "ephrin-A4 (Homo sapiens) (UniProt P52798)", "sequence (P52798 26-170)": "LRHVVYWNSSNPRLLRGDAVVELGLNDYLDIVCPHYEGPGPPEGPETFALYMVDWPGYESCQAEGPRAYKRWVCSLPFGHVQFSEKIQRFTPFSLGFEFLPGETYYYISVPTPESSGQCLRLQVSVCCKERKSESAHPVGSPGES", "settings": "cited from earlier work"}, "[1]": {"target": "V5-EphA2 (pcDNA3.2-V5-EphA2) (UniProt P29317)", "sequence (P29317 24-976)": "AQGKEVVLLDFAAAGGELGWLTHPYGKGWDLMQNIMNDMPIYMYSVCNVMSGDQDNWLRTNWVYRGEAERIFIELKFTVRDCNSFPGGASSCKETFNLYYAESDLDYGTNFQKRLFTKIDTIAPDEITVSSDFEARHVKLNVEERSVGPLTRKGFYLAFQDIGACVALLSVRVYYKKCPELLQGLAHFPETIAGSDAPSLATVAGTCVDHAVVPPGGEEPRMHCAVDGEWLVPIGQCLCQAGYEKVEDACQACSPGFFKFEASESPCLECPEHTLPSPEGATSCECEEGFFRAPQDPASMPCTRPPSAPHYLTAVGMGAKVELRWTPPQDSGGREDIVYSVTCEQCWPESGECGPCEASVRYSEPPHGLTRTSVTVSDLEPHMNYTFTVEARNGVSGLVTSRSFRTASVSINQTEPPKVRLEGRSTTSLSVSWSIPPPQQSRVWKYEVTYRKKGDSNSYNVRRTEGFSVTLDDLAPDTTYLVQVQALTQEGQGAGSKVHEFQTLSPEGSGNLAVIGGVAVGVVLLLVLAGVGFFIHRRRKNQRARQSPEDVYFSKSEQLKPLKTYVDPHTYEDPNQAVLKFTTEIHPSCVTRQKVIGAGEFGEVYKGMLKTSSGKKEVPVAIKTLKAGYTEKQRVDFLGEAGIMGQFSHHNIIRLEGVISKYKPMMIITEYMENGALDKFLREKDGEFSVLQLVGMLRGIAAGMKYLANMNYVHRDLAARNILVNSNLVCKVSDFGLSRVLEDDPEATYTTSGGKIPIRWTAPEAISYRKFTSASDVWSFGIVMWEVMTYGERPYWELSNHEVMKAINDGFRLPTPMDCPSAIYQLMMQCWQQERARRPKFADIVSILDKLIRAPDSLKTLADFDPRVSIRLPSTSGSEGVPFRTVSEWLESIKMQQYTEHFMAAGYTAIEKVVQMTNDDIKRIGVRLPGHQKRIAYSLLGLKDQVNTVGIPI", "experiment": "co-immunoprecipitation with densitometric quantification", "settings": "n = 3; parent: est. 1.0; read off a plot"}, "[2]": {"target": "T1, fc-fusion protein of the EphA2 extracellular domain (UniProt P29317 24-537)", "T1 construct": "EphA2 extracellular domain; Detected in the ELISA with biotinylated 1F7 mAb; also called EphA2 Fc", "T1 sequence (P29317 24-537)": "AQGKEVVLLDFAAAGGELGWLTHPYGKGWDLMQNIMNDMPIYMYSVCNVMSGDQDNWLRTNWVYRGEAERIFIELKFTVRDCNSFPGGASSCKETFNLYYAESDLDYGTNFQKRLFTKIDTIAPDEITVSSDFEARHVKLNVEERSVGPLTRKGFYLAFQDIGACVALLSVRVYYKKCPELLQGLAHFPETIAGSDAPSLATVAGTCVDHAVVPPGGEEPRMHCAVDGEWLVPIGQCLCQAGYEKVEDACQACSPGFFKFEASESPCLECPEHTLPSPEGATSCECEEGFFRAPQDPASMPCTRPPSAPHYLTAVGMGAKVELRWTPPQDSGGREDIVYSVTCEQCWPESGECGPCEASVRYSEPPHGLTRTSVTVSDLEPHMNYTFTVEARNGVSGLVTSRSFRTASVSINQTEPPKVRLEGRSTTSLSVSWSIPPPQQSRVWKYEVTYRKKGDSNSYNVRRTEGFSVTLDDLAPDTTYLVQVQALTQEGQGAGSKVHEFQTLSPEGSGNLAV", "experiment": "ELISA; plates coated with ephrin-A5 Fc or ephrin-B2 Fc (3 μg/ml, 50 mM carbonate buffer pH 9.5, overnight at 4 °C); diluted EphA2 Fc analyte 1 h at room temperature; detection with biotinylated 1F7 mAb and UltraStreptavidin-HRP, OD492 nm (the results say that the EphA2 Fc was immobilised)", "settings": "both partners purified"}}, "data": [{"molecule": "EphA4 (from UniProt P54764)", "values": [{"measurement": "Kd", "setting": "ephrin-B2 (Homo sapiens)", "result": 10800, "unit": "nM"}, {"measurement": "Kd", "setting": "ephrin-A5 (Homo sapiens)", "result": 360, "unit": "nM"}, {"measurement": "Kd", "setting": "ephrin-A4 (Homo sapiens)", "result": 36, "unit": "nM"}]}, {"molecule": "myc-tagged pendrin (pCMV-Myc-pendrin) (from UniProt O43511) F355L", "values": [{"measurement": "ratio to parent", "setting": "[1]", "result": 0.98}]}, {"molecule": "soluble ephrin-B2 extracellular domain-Fc fusion protein (Fc fusion, UniProt P52799 28-229, looked up, ephrin-B2 extracellular domain; also called ephrin-B2-Fc; ephrin-B2 Fc chimera protein) IVLEPIYWNSSNSKFLPGQGLVLYPQIGDKLDIICPKVDSKTVGQYEYYKVYMVDKDQADRCTIKKENTPLLNCAKPDQDIKFTIKFQEFSPNLWGLEFQKNKDYYIISTSNGSLEGLDNQEGGVCQTRAMKILMKVGQDASSAGSTRNKDPTRRPELEAGTNGRSSTTSPFVKPNPGSSTDGNSAGHSGNNILGSEVALFA", "values": [{"measurement": "Kd", "setting": "[2]", "result": 85, "unit": "nM"}]}, {"molecule": "ephrin-A5 Fc fusion protein (Fc fusion, UniProt P52803 21-203, looked up, ephrin-A5) QDPGSKAVADRYAVYWNSSNPRFQRGDYHIDVCINDYLDVFCPHYEDSVPEDKTERYVLYMVNFDGYSACDHTSKGFKRWECNRPHSPNGPLKFSEKFQLFTPFSLGFEFRPGREYFYISSAIPDNGRRSCLKLKVFVRPTNSCMKTIGVHDRVFDVNDKVENSLEPADDTVHESAEPSRGEN", "values": [{"measurement": "Kd", "setting": "[2]", "result": 2, "unit": "nM"}]}]}
